Experiment: yeast display, Sf9 membrane polyspecificity reagent, FACS + sequencing; frameworks hold sequencing errors
Procedure, shortened: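 Synthetic nanobody libraries on Saccharomyces cerevisiae BJ5465 were galactose-induced for 36–48 hours, stained 1 hour at 4 °C with 10% biotinylated, detergent-solubilized Sf9 membrane reagent and enriched on streptavidin microbeads. FACS then separated cells into low and high (top ~1%) gates by anti-HA (expression) and streptavidin (reagent binding) fluorescence. Genes were colony-PCR amplified, MiSeq 2 × 250 sequenced and CDR-length filtered. A clone's polyreactivity label is that of its gate of origin.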

Sequence	polyreactivity (PSR sort gate)
QVQLVESGGGLVQAGGSLRLSCAASGRIFYSNVMGWYRQAPGKERELVAAISGRTGGTYYADSVKGRFTISRDNAKNTVYLQMNSLIPEDTAVYYCAARVIYYYGSGPYDYWGQGTQVTVSS	low polyreactivity
QVQLVESGGGLVQAGGSLRLSCAASGSILYSYPMGWYRQAPGKERELVAAITGDGASTTYADSVKGRFTISRDNAKNTVYLQLNSLKPEDTAVYYCKAGRESDDVSEGSQRICQFDYWGPGTQVTVSS	low polyreactivity
QVQLVESGGGLVQAGGSLRLSCAASGFIFQANAMGWYRQAPGKERELVAAIDDGDSTYADSVKGRFTISRDNAKNTVYLQMNSLKPEDTAVYYCATRRNRSYDYWGQGTQVTVSS	low polyreactivity
QVQLVESGGGLVQAGGSLRLSCAASGRIFGTNALGWYRQAPGKERELVATITRGGGNTYYADSVKGRFTISRDNAKNTVYLQMNSLKPEDTAVYYCAAKFHRFAWYSHYDYWGQGTQVTVSS	low polyreactivity
QVQLVESGGGLVQAGGSLRLSCAASVSTFTFNDMGWSRQAPGKERELVAAITSGGSTTYADSVKGRFTISRDNAKNTVYLQMNSLKPEDTAVYYCAADYVYFYFYGYASWGQGTQVTVSS	low polyreactivity
QVQLVESGGGLVQAGGSLRLSCAASGRIFWPYAMGWYRQAPGKERELVAAISWGDGTTYYADSVKGRFTISRDNAKNTVYLQMNSLKPEDTAVYYCAVELWPDYVTDIRYYDGFDYWGQGTQVTVSS	low polyreactivity
QVQLVESGGGLVQAGGSLRLSCAASGLTFDAYAMGWYRHAPRKERELVAAISWSGGSTYYADSVKGRFTISRDNAKNTVYLQMNSLKPEDTAVYYSNARYAQFRFWGQGTQVTVSS	high polyreactivity
QVQLVESGGGLVQAGGSLRLSCAATGSTFYQYALGWYRQAPGKERELVAAISSRGTSTYYADSVKGRFTISRDNAKNTVYLQMNSLKPEDTAVYYCATEYTNWHRTWSLQTGGYGYWGQGTQGTVSS	high polyreactivity
QVQLVESGGGLVQAGGSLRLSCAASGRTFRPYAMGWSRQAPGKERELVAAIDSSGTSTYYADSVKGRFTISRDNAKNTVYLQMNSLKPEDTAVYYCAKAWPDHWYSRYDYWGQGTQVTVSS	low polyreactivity
QVQLVESGGGLVQAGGSLRVSCAASGLTFKINAMGWYRQEPGKERELVAAITWNGGRTYYADSVKGRFTISRDNAKNTVYLQMNSLKPEDTAVYYCAADGKYYHRRPGWPIYDYWGQGTQVTVSS	high polyreactivity
QVQLVESGGGLVQAGGSLRLSCASSGRTFTRYAMGWYRQAPGKERELVAAITGGGTTNYADSVKGRFTISRDNAKNTVYLQINSLKPEDTAVYYCAADEQDVFAPGLYFWGQGTQVTVSS	low polyreactivity
QVQLVESGGGLVQAGGSLRLSCAASGLTFVIYAMGWYRQAPGKERELVARITWSGGSTYYADSVKGRFTISRDNAKNTVYLQMNSLKPEETAVDYCAARRFYYYNAGYDSWGQGTQVTVSS	low polyreactivity
QVQLVESGGGLVQAGGSLRLSCAASGRILPYYAMGWYRPAPGKERELVAALTGGGGSTYYADSVKGRFTISRDNAKNTVYLQMNSLKPEDTAVYYCAKPRGRASLALYRFSLYYYWGQGTQVTVSS	high polyreactivity
QVQLVESGGGLVQAGGSLRLSCAASGSTFRTYAMGWYRQAPGKERELVAAISFNGTRTYYADSVKGRFTISRDNAKNTVYLQMNSLKPEDTAVYYCAARGRGSFHQKGYYYWGQGTQVTVSS	high polyreactivity
QVQLVESGGGLVQAGGSLRLSCAASGSIFERYAMGWYRQAPGKERELVAAISWRGGSTYYADSVKGRFTISRDNAKNTVYLQMNSLKPEDTAVYYCAAGARYVKQGYGYWGQGTQVTVSS	high polyreactivity
QVQLVESGGGLVQAGGSLRLSCAASGSIFWPNPMGGYRQAPGKERELVAGSTFSGGSTYADSVKGRFTISRDNAKNTVYLQMNSLKPEDTAVYYCAVVYYRDPRMDFWRQGTQVTVSS	high polyreactivity
QVQLVESGGGLVQAGGSLRLSCAASGSTFGVNAMGWYRQAPGKERELVAVITRSGGSTYYADSVKGRFTISRDNAKNTVYLQMNSLKPEDTAVYYCATSGVVDWGQGTQVTVSS	low polyreactivity
QVQLVESGGGLVQAGGSLRLSCAASGLTFIPNAMGWYRQAPGKERELVAAISGTGGSTYYADSVKGRFTISRDNAKNTVYLQMNSLKPEDTAVYYCAARRRYKSGYWGQGTQVTVSS	high polyreactivity
QVQLVESVGGLVQAGGSLRLSCAASGGIFYKYAMGWYRQAPGNERELVAAITGRGGSTNYADSVKGRFTISRDNSKNTVYLQMNSLKPEDNAVYYCAADLRLYSSQDNDYWGQGTQVTVSS	low polyreactivity
QVQLVESGGGLVQAGGSLRLSCAASGRNFDPYAMGWYRQAPGKERELVASISRGGSTYADSVKGRFTISRDNAKNTVYLQMNRLKPEVTAVYYCNTSLYTEGDAMDYWGQGTQVTVSS	low polyreactivity
QVQLVESGGGLVQAGGSLRLSCAASGSIFYTYAMGWYRQAPGKERELVATIRVSGVSTYADSVKGRFTISRDNAKNTVYLQMNSLKPEDTAVYYCNKVSFYEPIYWQQGYVLLDYWGQGTQVTVSS	low polyreactivity
QVQLVESGGGLVQAGGSLRLSCAASGGIFISYAMGWYRQAPGKERELVAAITSSGGSTYYADSVKGRFTISRDNAKNTVYLQMNSLKPEVTAVYYCNTDRVPVKVSPLYESWGQGTQVTVSS	low polyreactivity

Sequence	polyreactivity (PSR sort gate)
QVQLVESGGGLVQAGGSLRLSCPASGSIFSAYAMGWYRQAPGNEREFVAAITRRGGNTYYADSVKGRFTISRDNAKNTVYLQMNSLKPEDTAVYYCAAIRRQKGLWDYYYWGQGTQVTVSS	low polyreactivity
QVQLVESAGGLVQAGGSLRLSCAASGSIFVYNTMGWYRQAPGKERELVASITYSGGSTYYADSVKGRFTISRDNAKNTVYLQMNSLKPEDTAVYYCNTDDVALQWDWYPYPYDYWGQGTQVTVSS	low polyreactivity
QVQLVESGGALVQAGGSLRLSSAASGLTFYYYAMGRYRQAPGKERELVAAITGSGGRTYYADSVKGRFTISRDNAKNNVYLQMNSLKPEDTAVYYCAASWPNYLYEYWGQGTQVTVSS	high polyreactivity
QVQLVESGAGLVQEGGRLRLRCAASGFTFMDNAMGCYRKAPGKETQLVAAISRSGGSTYYADSVKGRFTISRDNAKNTVYLQMKSLKPEDTEGFYCAAFLYRSQYSGFEYWGQGTQVTVSS	high polyreactivity
QVQLVESGGGLVQAGGSLRLSCAASGRTFDYNAMGWYRQAPGKERELVAAISSSGGSTYYADSVKGRFTISRDNAKNTVYLQMNSLKAEDTAVYYCATLYPRKSIYYYWGQGTQVTVSS	high polyreactivity
QVQLVESGGGLVQAGGSLRLSCAASGRLFVYNAMGWYRQAPGKEREFVATITSSGGRTYYADSVKGRFTISRDNAKNTVYLQMNSLKPEDSAVYYCAARPQNNGRNPVYRYNYWGQGTQVTVSS	high polyreactivity
QVQLVESGGGLVQAGGSLRLSCAASGSIFYTNAMGWDRQAPGKERELVATITSSTGSTNYADSVKGRFTISRDNAKNTVYLQMNSLKPEDTAVYYCAKRDGYWVYYQMDYWGQGTQVTVSS	low polyreactivity
QVQLVESGGGLVQAGGSLRLSCAASGITFYGYAMGWYRQAPGKERELVAVITSSGSSTYYADSVKGRFTISRDNAKNTVYLQMNSLKPEDTAVYYCNARPGRRSLRSRTYDYWGQGTQVTVSS	high polyreactivity
QVQLVESGGGLVQAGGSLRLSCAASGSTFVKYVMGRYRQAPGKERELVAAISRSSVRTYYADSVKGRFTISRDNAKNTVYLQMNSLKPEDTAVYYCAVVLSTYSYADYDYWGQGTLVTVSS	high polyreactivity
QVQLVESGGGLVQAGGSLRLSCAASGFIFWYYAMGWYRQAPGKERELVAAITSGGSTNYADSVKGRFTISRDNAKNTVYLQMNSLKPEDTAVYYCARPYVTYEYDYWGQGTQVTVSS	low polyreactivity
QVQLVESGGGLVQAGGSLRLSCAASGSIFASNAMGCYRQAPGKERELVAAINSGDSTNYADSVKGRFTISRDNAKNTVYLQMNSLKPEDTAVYYCARGLEERYDYWGQGTQVTVSS	low polyreactivity
QVQLQESGGGLVQAGGSLRMSCSASGNIFDADIMGWYRQAPGKERELVASITDGRRTNYADSVKGRYTISRDSEKNTVYLQMNSLKPEDTAVYYCAAIAYPVVPTYFDYDSDYFHWGQGTQVTVSS	high polyreactivity
QVQLVESGGGLVQAGGSLRLSCAASGSTILSNAMGWYRQAPGKERELVADITSGGSTYYADSVKGRFTISLDNAKNTVYLQMNSLKQEDTAVYYCAVRYYLRRYDYWGQGTQVTVSS	low polyreactivity
QVQLVESGGGLVQAGGSLRLSCAAYGRTFGYNTMGWYRQAPGKERELVATIRTNGVSTYYADSVKGRFTISRDNAKNTVYLQMNSLKPEDTAVYYCNADPHDQYDYWGQGTQVTVSS	low polyreactivity
QVQLVESGGGLVQAGGSLRLSCAASGLIFRRYVLGWYRQAPGKEWELVAAISATGSRTYYADSVKGRFTISRDNAKNTVYLQRNSLKPEDNAVYYCAAYRGPRIYRYDYWGQVTQVTVSS	high polyreactivity
QVQLVESGGGLVQAGGSLRLICAASGSILYKYAMGWYRQAPGKERELVAAISSRGGNTYYADSVKGRFTISRDNAKNTVYLHMNSLKPEDTAVYYCAADMWAGKYGEYDYWGQGTQVTVSS	high polyreactivity
EVQLVESGGGLVQPGGSLRLSCAASGYIYRRYRMGWYRQAPGKGREFVAAISGGSSTNYADSVTGRFTISRDNSKNTVFLQMNSLRAEDTAVYYCAAYKIDSYPRVYWGQGTQVTVSS	low polyreactivity
QVQLVESGGGLVQAGGSLRLSCAASGSIFVTYAMGWYRQAPWKDWELVAAISTSGGSTYADSVKGRFTISRDNAKNTVYLQMNSLKPVDTAVYYCNADDPGYAVPWYWFKYDYWGQGTQVTVSS	low polyreactivity
QVQLVESGGGLVQAGGSLRLICAAYGSTFKQYAMGWYRPAPGKERELVAAITRGGRTYYADSVKGRFTISRDNAKNTVYLQMNSLKPEDTAVYYCNAQSWRRYGHFYYWGQGTQVTVSS	high polyreactivity
QVQLVESGGGLVQAGGSLRLSCAASGSTFHRNAMGWYRPAQGKERELVASISIGGSTNYADSVKGRVTISRDNAKNTVYLQMNSLKPEDTAVYYCATEPNPRRPRVDYDYWGQGTQVTVSS	low polyreactivity
QVQLVESGGGLVQAGGSLRLSCAASGFIFKGYAMGWYRQSPGKERELVAVISTSGDRTYYADSVKGRFTISRDNAKNTVYLQMNSLKPEDTAVYYCAAKASPYGGRQKGYDYWGQGTQVTVSS	high polyreactivity

Source: the nanobody polyreactivity screen of Harvey et al. (2022)
